Source: IntAct's records for PubMed 15784897

Experiments:
fyn_human FYN = fyn_human FYN (UniProt P06241)
grb2_human GRB2 = grb2_human GRB2 (UniProt P62993)
lck_human LCK = lck_human LCK (UniProt P06239)
hck_human HCK = hck_human HCK (UniProt P08631)

Measured: effect of a mutation on the interaction

Sequence of hck_human HCK (P08631 whole entry, looked up): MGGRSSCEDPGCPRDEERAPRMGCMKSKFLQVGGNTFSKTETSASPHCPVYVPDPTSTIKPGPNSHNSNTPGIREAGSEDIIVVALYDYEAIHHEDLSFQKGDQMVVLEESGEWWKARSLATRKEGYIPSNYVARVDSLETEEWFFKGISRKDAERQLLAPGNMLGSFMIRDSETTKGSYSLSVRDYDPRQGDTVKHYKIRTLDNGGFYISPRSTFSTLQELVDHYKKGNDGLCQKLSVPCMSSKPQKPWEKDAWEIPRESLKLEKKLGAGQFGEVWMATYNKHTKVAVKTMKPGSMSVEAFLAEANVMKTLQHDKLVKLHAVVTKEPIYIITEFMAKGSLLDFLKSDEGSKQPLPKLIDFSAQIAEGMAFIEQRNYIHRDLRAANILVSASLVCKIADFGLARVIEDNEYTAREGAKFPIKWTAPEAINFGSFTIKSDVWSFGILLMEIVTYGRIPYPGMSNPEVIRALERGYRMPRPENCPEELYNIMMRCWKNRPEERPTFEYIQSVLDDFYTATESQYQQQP
Sequence of fyn_human FYN (P06241 whole entry, looked up): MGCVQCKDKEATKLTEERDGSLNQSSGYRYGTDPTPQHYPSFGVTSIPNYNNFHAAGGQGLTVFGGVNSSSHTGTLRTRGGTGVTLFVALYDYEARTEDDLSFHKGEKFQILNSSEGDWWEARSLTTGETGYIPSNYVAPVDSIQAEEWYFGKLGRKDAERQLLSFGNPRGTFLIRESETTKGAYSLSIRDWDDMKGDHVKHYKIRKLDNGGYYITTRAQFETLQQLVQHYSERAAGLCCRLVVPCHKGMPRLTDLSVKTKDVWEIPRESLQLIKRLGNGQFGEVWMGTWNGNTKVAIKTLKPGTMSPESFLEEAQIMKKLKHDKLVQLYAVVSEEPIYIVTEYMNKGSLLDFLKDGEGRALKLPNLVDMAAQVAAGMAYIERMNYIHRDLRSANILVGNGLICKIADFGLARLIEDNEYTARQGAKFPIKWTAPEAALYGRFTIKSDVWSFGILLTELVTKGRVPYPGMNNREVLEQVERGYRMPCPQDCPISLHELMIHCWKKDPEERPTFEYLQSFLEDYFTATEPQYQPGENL
Sequence of lck_human LCK (P06239 whole entry, looked up): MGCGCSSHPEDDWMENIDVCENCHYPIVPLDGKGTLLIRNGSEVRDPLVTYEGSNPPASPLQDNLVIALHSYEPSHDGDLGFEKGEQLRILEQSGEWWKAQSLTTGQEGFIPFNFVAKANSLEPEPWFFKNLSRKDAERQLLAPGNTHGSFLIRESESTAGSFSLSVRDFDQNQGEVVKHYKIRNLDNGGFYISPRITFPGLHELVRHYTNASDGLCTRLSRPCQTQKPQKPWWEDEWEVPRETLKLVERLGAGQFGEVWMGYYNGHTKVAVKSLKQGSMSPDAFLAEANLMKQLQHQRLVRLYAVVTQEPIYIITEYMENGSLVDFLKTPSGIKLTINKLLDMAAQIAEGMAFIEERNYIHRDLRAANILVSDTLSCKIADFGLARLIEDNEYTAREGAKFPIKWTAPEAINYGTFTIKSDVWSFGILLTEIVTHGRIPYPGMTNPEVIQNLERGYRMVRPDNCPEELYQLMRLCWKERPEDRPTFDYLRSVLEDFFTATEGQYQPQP

Genome polyprotein (Hepatitis C virus genotype 1b (isolate Con1) (HCV)), Q9WMX2 P2322A;P2325A;P2326A
disrupting interaction: all assays above
